US20200199241A1 (Chugai, published 2020)
Positions count from the first letter of the chain named. Names and notes keep the numbering of the source. Like-named read-outs stand apart in the source and are kept apart here.

T1: human FcγRIIb (human, UniProt P31994 43-217, limits assumed)
T1 construct: also called FcγIIB
T1 sequence: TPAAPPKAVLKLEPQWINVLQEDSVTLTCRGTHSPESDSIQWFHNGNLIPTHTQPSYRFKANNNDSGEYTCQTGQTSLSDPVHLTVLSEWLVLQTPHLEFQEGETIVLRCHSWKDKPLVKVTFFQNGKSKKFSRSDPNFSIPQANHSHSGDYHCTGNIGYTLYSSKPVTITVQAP

T2: human FcγRIIa type R (human, UniProt P12318 36-217)
T2 construct: also called FcγRIIaR; FcγRIIa(R)
T2 chain: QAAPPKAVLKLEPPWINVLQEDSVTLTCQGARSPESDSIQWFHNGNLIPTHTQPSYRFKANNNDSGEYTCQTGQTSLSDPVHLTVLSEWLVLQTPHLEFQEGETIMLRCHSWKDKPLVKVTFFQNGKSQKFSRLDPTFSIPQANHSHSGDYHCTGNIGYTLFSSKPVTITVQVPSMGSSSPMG

T3: human FcγRIIa type H (human, UniProt P12318 36-217)
T3 construct: also called FcγRIIaH; FcγRIIa(H)
T3 sequence: T2 chain with R133H

T4: FcγRIIb (human, UniProt P31994 43-217, limits assumed)
T4 construct: SPR analyte; also called FcγIIB; CD32
T4 sequence: T1 sequence

T5: FcγRIIa type R (human, UniProt P12318 36-217)
T5 construct: SPR analyte; also called FcγRIIaR; FcγRIIa(R)
T5 chain: T2 chain

T6: FcγRIIa type H (human, UniProt P12318 36-217)
T6 construct: SPR analyte; also called FcγRIIaH
T6 sequence: T2 chain with R133H

T7: human FcγRIIa(R) (human, UniProt P12318 36-217)
T7 construct: also called hFcgRIIa(R); FcγRIIa type R
T7 chain: T2 chain

T8: human FcγRIIa(H) (human, UniProt P12318 36-217)
T8 construct: also called hFcgRIIa(H); FcγRIIa type H
T8 sequence: T2 chain with R133H

T9: mouse FcγRIIb (mouse, UniProt P08101 30-207, limits assumed)
T9 construct: bought; also called mFcgRIIb; mFcgR IIb
T9 sequence (looked up): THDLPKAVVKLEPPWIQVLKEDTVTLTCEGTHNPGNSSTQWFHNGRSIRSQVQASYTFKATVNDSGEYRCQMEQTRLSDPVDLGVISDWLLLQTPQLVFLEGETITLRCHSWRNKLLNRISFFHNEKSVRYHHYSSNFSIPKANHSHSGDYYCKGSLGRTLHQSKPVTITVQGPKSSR

T10: mouse FcγRIV (mouse, UniProt A0A0B4J1G0 21-203)
T10 construct: bought; also called mFcgRIV; mFcgR IV; the vendor's purification tag not given
T10 sequence: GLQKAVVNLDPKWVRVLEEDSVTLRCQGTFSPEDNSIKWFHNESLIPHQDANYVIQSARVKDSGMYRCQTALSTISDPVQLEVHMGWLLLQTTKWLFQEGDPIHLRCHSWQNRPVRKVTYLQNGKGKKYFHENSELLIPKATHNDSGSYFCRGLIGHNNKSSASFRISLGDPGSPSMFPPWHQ

T11: mouse FcγRIII (mouse, UniProt P08508 31-215)
T11 construct: bought; also called mFcgRIII; mFcgR III
T11 sequence (looked up): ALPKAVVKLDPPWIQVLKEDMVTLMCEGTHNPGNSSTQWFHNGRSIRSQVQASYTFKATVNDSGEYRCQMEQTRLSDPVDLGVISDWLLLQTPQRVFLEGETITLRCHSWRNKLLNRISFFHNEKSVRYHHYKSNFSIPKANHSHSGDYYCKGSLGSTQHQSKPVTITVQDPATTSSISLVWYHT

B1: IL6R-F11/IL6R-L (antibody, human IgG1)
heavy: not shown
light: DIQMTQSPSSLSASVGDRVTITCRASQDISSYLNWYQQKPGKAPKLLIYYTSRLHSGVPSRFSGSGSGTDFTFTISSLQPEDIATYYCQQGNTLPYTFGQGTKVEIK
notes: IL6R-G1d with M252Y/N434Y (EU numbering)
B2: IL6R-B3/IL6R-L (antibody, human IgG1)
heavy: not shown
light: B1 light
notes: IL6R-G1d with K439E (EU numbering); also called parent polypeptide
B3: IL6R-G1d/IL6R-L (antibody, human IgG1)
heavy: not shown
light: B1 light
notes: Anti-human IL-6 receptor antibody with the G1d constant region; also called IgG1 (IL6R-G1d)
B4: antibody with VH3-IgG1-F1326 heavy chain and L(WT)-CK light chain (antibody)
heavy: QVQLQESGPGLVKPSETLSLTCAVSGHSISHDHAWSWVRQPPGEGLEWIGFISYSGITNYNPSLQGRVTISRDNSKNTLYLQMNSLRAEDTAVYYCARSLARTTAMDYWGEGTLVTVSSASTKGPSVFPLAPSSKSTSGGTAALGCLVKDYFPEPVTVSWNSGALTSGVHTFPAVLQSSGLYSLSSVVTVPSSSLGTQTYICNVNHKPSNTKVDKKVEPKSCDKTHTCPPCPAPEAAGGPSVFLFPPKPKDVLYISRTPEVTCVVVDVSHEDPEVKFNWYVDGVEVHNAKTKPREEQYNSTYRVVSVLQPLHADWLNGKEYKCKVSNKALPAPIEKTISKAKGQPREPQVYTLPPSRDELTKNQVSLTCLVKGFYPSDIAVEWESNGQPENNYKTTPPVLDSDGSFFLYSKLTVDKSRWQQGNVFSCSVMHEALHYHVTQKSLSLSP
light: not shown
notes: L234A/L235A/T250V/M252Y/T307Q/V308P/Q311A/N434Y/Y436V; copies: 2 + 2

Key:
[1] = molecular target: T1, human FcγRIIb; assay: SPR (Biacore); KD for FcγRIIaR divided by KD for FcγRIIb of the same antibody
[2] = molecular target: T1, human FcγRIIb; assay: SPR (Biacore); KD for FcγRIIaH divided by KD for FcγRIIb of the same antibody
[3] = molecular target: T1, human FcγRIIb; assay: SPR (Biacore); ratio against parent IL6R-F11/IL6R-L
[4] = molecular target: T1, human FcγRIIb; assay: SPR (Biacore), antibody captured, FcγR as analyte
[5] = molecular target: T2, human FcγRIIa type R; assay: SPR (Biacore), antibody captured, FcγR as analyte
[6] = molecular target: T12, human FcγRIa (human, UniProt P12314 16-292, limits assumed); assay: SPR (Biacore), antibody captured, FcγR as analyte
T12 construct: also called CD64

[7] = molecular target: T3, human FcγRIIa type H; assay: SPR (Biacore), antibody captured, FcγR as analyte
[8] = molecular target: T4, FcγRIIb; assay: ratio of SPR KDs; reference IL6R-B3/IL6R-L
[9] = molecular target: T4, FcγRIIb; assay: ratio of SPR KDs: KD for FcγRIIaR over KD for FcγRIIb
[10] = molecular target: T4, FcγRIIb; assay: ratio of SPR KDs: KD for FcγRIIaH over KD for FcγRIIb
[11] = molecular target: T13, FcγRIIIa type V (human, UniProt P08637 17-208, limits assumed); assay: SPR (Biacore), antibody captured, FcγR analyte
T13 construct: SPR analyte; allotype V158 was used here; also called FcγRIIIaV; FcγRIIIa(V)

[12] = molecular target: T5, FcγRIIa type R; assay: SPR (Biacore), antibody captured, FcγR analyte
[13] = molecular target: T6, FcγRIIa type H; assay: SPR (Biacore), antibody captured, FcγR analyte
[14] = molecular target: T14, FcγRIa (human, UniProt P12314 16-292, limits assumed); assay: SPR (Biacore), antibody captured, FcγR analyte
T14 construct: SPR analyte; also called CD64

[15] = molecular target: T4, FcγRIIb; assay: SPR (Biacore), antibody captured, FcγR analyte
[16] = molecular target: T6, FcγRIIa type H; assay: ratio of SPR KDs; stronger receptor here FcγRIIaH; reference IL6R-B3/IL6R-L (FcγRIIaH)
[17] = molecular target: T15, human FcRn (soluble human FcRn complexed with β2-microglobulin) (human, UniProt P61769 21-119, limits assumed); assay: SPR, antibody captured by Protein L, human FcRn as analyte, pH 7.0, 25 C
T15 construct: also called hFcRn

[18] = molecular target: T7, human FcγRIIa(R); assay: SPR, antibody captured by Protein L, human FcγR as analyte, pH 7.4, 25 C;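 also: biacore T100 or T200 with Protein L amine-coupled on a CM4 chip, FcγRs diluted in ACES saline with polysorbate 20, buffer-only injection as blank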
[19] = molecular target: T8, human FcγRIIa(H); assay: as above
[20] = molecular target: T16, human FcγRIa (human, UniProt P12314 16-292, limits assumed); assay: as above
T16 construct: also called hFcgRIa; hFcgRI

[21] = molecular target: T17, human FcγRIIIa(V) (human, UniProt P08637 17-208, limits assumed); assay: as above
T17 construct: also called hFcgRIIIa(V); allotype V158

[22] = molecular target: T9, mouse FcγRIIb; assay: SPR, antibody captured by Protein L, mouse FcγR as analyte, pH 7.4, 25 C; set-up: unit not given here
[23] = molecular target: T10, mouse FcγRIV; assay: as above; set-up: unit not given here
[24] = molecular target: T11, mouse FcγRIII; assay: as above; set-up: unit not given here
[25] = molecular target: T15, human FcRn (soluble human FcRn …); assay: SPR, antibody captured by Protein L, human FcRn as analyte, pH 7.0, 25 C; remark: listed apart in the source

T14 sequence (P12314 16-292 limits assumed): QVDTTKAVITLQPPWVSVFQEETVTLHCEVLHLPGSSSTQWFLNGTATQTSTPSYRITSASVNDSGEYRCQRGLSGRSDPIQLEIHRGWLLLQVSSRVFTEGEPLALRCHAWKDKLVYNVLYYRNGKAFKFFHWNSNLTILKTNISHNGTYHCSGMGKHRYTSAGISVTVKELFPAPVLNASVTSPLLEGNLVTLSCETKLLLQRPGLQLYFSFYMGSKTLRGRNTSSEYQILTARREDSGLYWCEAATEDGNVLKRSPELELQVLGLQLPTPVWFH
T13 sequence (P08637 other isoform, or with tags, fused parts or gaps limits assumed): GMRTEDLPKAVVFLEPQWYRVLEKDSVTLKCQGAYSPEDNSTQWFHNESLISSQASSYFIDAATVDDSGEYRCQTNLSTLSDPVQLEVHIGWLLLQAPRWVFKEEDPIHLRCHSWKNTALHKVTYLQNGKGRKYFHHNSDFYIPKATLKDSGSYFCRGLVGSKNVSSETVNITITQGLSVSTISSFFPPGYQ
T15 sequence (chain, as listed by the source limits assumed, chain 1 of 2): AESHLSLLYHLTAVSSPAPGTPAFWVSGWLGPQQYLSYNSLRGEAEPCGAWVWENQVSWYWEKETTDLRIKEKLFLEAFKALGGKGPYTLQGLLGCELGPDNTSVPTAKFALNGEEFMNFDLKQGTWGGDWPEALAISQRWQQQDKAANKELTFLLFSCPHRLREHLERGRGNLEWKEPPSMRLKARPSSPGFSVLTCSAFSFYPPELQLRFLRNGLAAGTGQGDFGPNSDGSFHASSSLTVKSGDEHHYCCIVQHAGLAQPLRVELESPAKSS
T15 sequence (P61769 21-119 limits assumed, chain 2 of 2): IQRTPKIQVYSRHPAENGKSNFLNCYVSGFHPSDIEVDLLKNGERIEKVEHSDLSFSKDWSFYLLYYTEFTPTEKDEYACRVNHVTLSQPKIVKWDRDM
T17 sequence (P08637 other isoform, or with tags, fused parts or gaps limits assumed): as the sequence (P08637 other isoform, or with tags, fused parts or gaps limits assumed) above

| Binder | KD(IIb) of the parent polypeptide/KD(IIb) of altered polypeptide [8] | KD(IIaR)/KD(IIb) [9] | KD(IIaH)/KD(IIb) [10] | Kd [11] [nM] | Kd [12] [nM] | Kd [13] [nM] | Kd [14] [nM] | Kd [15] [nM] | KD of the stronger of FcγRIIaR/FcγRIIaH binding of the variant / that of the parent polypeptide [16] | also measured |
| --- | --- | --- | --- | --- | --- | --- | --- | --- | --- | --- |
| B1 | – | – | – | – | – | – | – | – | – | KD(IIaR)/KD(IIb) [1]: 0.7; KD(IIaH)/KD(IIb) [2]: 0.7; KD(IIb) of parent polypeptide/KD(IIb) of altered polypeptide [3]: 1; Kd [4]: 6.8 µM; Kd [5]: 5 µM; Kd [6]: 0.9 nM; Kd [7]: 5 µM |
| B2 | 1 | 0.3 | 0.2 | 330 | 1100 | 770 | 0.42 | 3100 | 1 | – |
| B3 | 1.2 | 0.4 | 0.3 | 350 | 1000 | 670 | 0.32 | 2600 | 0.9 | – |
| B4 | – | – | – | – | – | – | – | – | – | Kd [17]: 11 nM; BINDING AMOUNT (RU) [18]: 11.7 RU; BINDING AMOUNT (RU) [19]: 11.4 RU; BINDING AMOUNT (RU) [20]: 265 RU; BINDING AMOUNT (RU) [21]: 61.6 RU; binding amount [22]: 19.2; binding amount [23]: 85.6; binding amount [24]: 532; Kd [25]: 11 nM |
